Laboratory results from publication PMC6314544.

Key:
hLC3-KCK-his6 (human) [1] = molecular target: hLC3-KCK-his6 (human) (UniProt Q9GZQ8); assay: FRET or BRET; various concentrations of Alexa Fluor 546-labeled NT JMY added to 200 nM Alexa Fluor 647-labeled LC3; 100 mM KCl, 20 mM Hepes pH 7.4
hLC3-KCK-his6 (human) [2] = molecular target: hLC3-KCK-his6 (human) (UniProt Q9GZQ8); assay: AUC; sedimentation equilibrium of purified LC3 in solution; dimer to monomers

| Substance | Kd (hLC3-KCK-his6 (human) [1]) [nM] | Kd (hLC3-KCK-his6 (human) [2]) [nM] |
| --- | --- | --- |
| SNAP-JMY (1-314), N-terminal region of JMY (from UniProt Q8N9B5 1-314) (domain or fragment) | 55 |  |
| hLC3-KCK-his6 (from UniProt Q9GZQ8 1-120) (natural protein) |  | > 700000 |
